The labels stand for the following.
T1: EBOV GP on pseudotyped lentiviral particles (Ebola virus (EBOV), UniProt Q05320 33-676)
T1 sequence: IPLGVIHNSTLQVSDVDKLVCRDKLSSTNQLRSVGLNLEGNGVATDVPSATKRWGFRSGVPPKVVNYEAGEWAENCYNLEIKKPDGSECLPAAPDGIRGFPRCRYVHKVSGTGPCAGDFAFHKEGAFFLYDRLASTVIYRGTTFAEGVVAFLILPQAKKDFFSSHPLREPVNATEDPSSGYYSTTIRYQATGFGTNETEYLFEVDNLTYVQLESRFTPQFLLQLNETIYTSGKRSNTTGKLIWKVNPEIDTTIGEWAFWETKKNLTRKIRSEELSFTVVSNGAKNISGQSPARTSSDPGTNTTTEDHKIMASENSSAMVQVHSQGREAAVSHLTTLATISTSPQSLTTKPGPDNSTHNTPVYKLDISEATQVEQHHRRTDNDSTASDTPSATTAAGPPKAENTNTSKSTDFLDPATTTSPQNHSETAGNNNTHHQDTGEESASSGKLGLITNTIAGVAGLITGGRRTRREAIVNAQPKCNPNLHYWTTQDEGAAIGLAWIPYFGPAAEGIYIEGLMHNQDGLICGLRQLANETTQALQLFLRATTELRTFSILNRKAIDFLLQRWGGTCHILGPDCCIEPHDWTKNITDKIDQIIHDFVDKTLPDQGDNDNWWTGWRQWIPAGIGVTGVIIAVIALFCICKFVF

B1: EboV.YD.01 IgG (antibody, V domains shown)
VH: QVRLVQSGGGLVKPGGSLRLSCAASGFTFSTFAMHWVRQAPGKGLEWVSSISRSSGSINYADSVKGRFTISRDNAKNSLFLQMNSLRADDTAVYYCARENTIPFGGGVVLERASHFDYWGQGTTVTVSS
VL: DIRVTQSPSSLSASVGDRVTIICRASQSSSTFLNWYQQKPGKAPNLLIYAASSLQSGVPSRFSGSGSGTDFTLTISSLQPEDFATYYCQQSYSAPYTFGQGTKVDIK
B2: EboV.YD.02 IgG (antibody, V domains shown)
VH: QVQLVQSGAEVKKPGTSVKISCKASGYSFTSKYMHWVRQAPGQGLEWMGKINPSGGRRDYAQKFQGRVTMTRDTSTSTVYMELSSLRSGDTAVYYCARDMHGVLSWYHALDYWGQGTLVTVSS
VL: DIRVTQSPSSLSTSVGDRVTITCRASQDIGRYLNWYQQKPGKAPKLLIYGASSLQSGVPSRFSGSGSGTDFTLTISSLQPEDFATYYCQQGYRIPITFGQGTRLEIK
B3: EboV.YD.04 IgG (antibody, V domains shown)
VH: QVQLVESGGGLVKPGGSLRLSCAASGFMFSNAWMNWVRQAPGKGLEWVGRIKSRSDGGTTDYAAPVKGRFTFSREDSKNMLYLQMNSLKREDTAVYYCTTRVSIFRGPIEDVWGQGTTVTVSS
VL: QPVLTQPPSVSGAPGQRVTISCAGSSSNIGAGYDVYWYQQLPGTAPKLLIYGNNNRPSGVPDRFSGSKSGTSASLAITGLQAEDEAEYYCQSYDSSLRDSYVFGSGTKVTVL
B4: EboV.YD.03 IgG (antibody, V domains shown)
VH: QVQLQESGPGLVKPSETLSLTCTVSGDSLSSSYWSWIRQSAGKGLEYIGRTYVSGNTKYNPSLKSRVTMSVDTSKNQFSLRLTSVTAADTAVYYCARIRVLPAAMLRGDYWYFDLWGRGTLVTVSS
VL: SYELTQLPSVSVSPGQTASITCSGDKVENKYVCWYQQKSGQSPVLVIYEDSKRPSGIPERFSGSNSGNTATLTISGTQTMDEADYFCQAWDSSIGVFGTGTKLTVL

The record followed here is patent US20220089694A1 (US Dept. of Health and Human Services, published 2022).

One assay addresses T1, EBOV GP on pseudotyped lentiviral …. The assay is described as follows: cell-based or functional assay.
Turning to B1, the “IC50, neutralization activity in a pseudotyped virus entry assay” value (from here on “IC50, neutralization activity”) came out at 7.1 µg/mL.

As for B2, the “IC50, neutralization activity” value was 1.6 µg/mL.

For B3, the “IC50, neutralization activity” value amounted to 0.5 µg/mL.

B4: the “IC50, neutralization activity” value was found to be 1.1 µg/mL.

The target is the same in the next assay. The assay is described as follows: cell-based or functional assay. This is another data set of the same source.
In the case of B1, the “% EBOV Neut. (10 µg/mL)” value came to 55.1%.

For B2, the “% EBOV Neut. (10 µg/mL)” value was determined as 70.8%.

As for B3, the “% EBOV Neut. (10 µg/mL)” value worked out at 98.8%.

Turning to B4, the “% EBOV Neut. (10 µg/mL)” value was determined as 97.3%.
